The values below come from the NTF2 design screens of Basanta et al. (2020).

A short description of the data set: protease stability score; higher = more stable; yeast display proteolysis, trypsin and chymotrypsin.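 Also: log10 excess protease needed over predicted unfolded state with 0 meaning unfolded.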
“DEEENQELAEKFVRAIQEGDPDQITDLLDENAKATVGDRTYHGRSQIADYIHEMLKKADHFEVQSVDVQGNHIVIHVQMDINGKQVHMIIKMELSNGKVKHLEIEHK”: the protease stability score was 1.75.

Take “EEHLESLVRNLEEAVKKGNPEEMKKNLDKNARMVYGDKRLHGMSDILTEIEKRREHMRLEHEVKSIDNQGNKAKVTARLDVNVNGHPVDVDFIIHIKVHNGHVLEIVYQLPPEAHEKLKT”: the protease stability score was -0.278.

As for “DSDAARELVKALNTGNEEELKHMVDPNARARVGDKRLHGRDELFRFWHKLKRHVDHRRVNKVEIHGEKAHVDVQLNVDGRNIRVNIVMEAHNGRVKEFTIEFRDRDARKEFRNQVD”, the protease stability score came out at 1.16.

As for “DERAVEVLERFLEAQKTGNEEDLKKQVDPNARIQIGDKQVHGMDQAARNLVDTYEEIQIDFRIDRMSAHNGNVTVEAHQQINVNGRPFRNSVTMHAYLQGDKAKEINYRVPEKFENEVKS”, the protease stability score was -0.326.

Sequence “DQRDVKKAEHLLRILETGNESELKKMMDPNARARVGDTTYHGMDDFVRKLTHMRDRAKFEIKEYSATDHNGHIRVHVRREVNFNGRPDRVSFIVRFDIENGKVRSVIFNLPRELLEREKK” came in with a protease stability score of 0.429.

In the case of “DDELQHQVERFLTNIEHGDPDKIQRQVDKDVNARVGDETLHGSDQLKDTWHDTQRQMRFSFHVTKYDAREGHVDITAHITMDRNGKPESRQVRVRFNINNGKLREVDMQLRG”, the protease stability score is 1.04.

For the sequence “DDELEEQVKKWLENLKNNNEEELQKQMDPNAKMQYGDKEYHGMHDALKTLAQEDRELRYNVRIISINVQGDRVHITRRINRDHDGRPSQKKYKLNLRLHNGRNQHFREQEDG”, the protease stability score is -0.102.

Regarding “DDDNVRKMNEMFNALETGDEHKLKKQFDPNAHIRIGDQTYHGMDDYARKFRHKRNNMRQSYESYTITNEGDKVTIEATFSRRHNGTPERKKVVVEVDIRGDQAKSATVQDDR”, the protease stability score turned out to be 0.032.

Take “DEKRMKELMDKVFRLVMEGNEEDVVKMGAPDVKYKYADHEYKGPEVMKEVAVMVRRLGAEVRVKRKEVHGDTAQADFDYRKGDTTVRTTARVKYEGDKVKRAEVEVSDEVKKIVHQG”: the protease stability score stood at 0.144.

Consider “DDKEEAESIAKTLQKILDTGNEEDYLNMADEDVEINIGDKHYRGREEFLKWVQKMTRQVDHLRIDVKSVEVSGDKAHIQYHLELNHDGKNETHKLVMVARKSNGRLTIKKITHQ”, for which the protease stability score is 1.19.

Turning to “DETAQEQAKKLFQARQTNDPDKVNNLLDENARVNIGDTSVQGREDASKEVERQHRESHQSVELKEVKVDGDHVELHYVLTKQENGKPDSNKASMNVQIHNGKAQDVQIQTSK”, the protease stability score was -0.35.

With “DEKALENLRRVNDARKTNDEDRIKKLLDKDARVQVGDRQIKGRENVSDTLRKLEEHMRIEIKDYRVDVQNGRAKLEVHWQFEVNGKPRKVTYDWEAEANNGKIQTMHAQFTEEDKRKRKQ”, the protease stability score was -0.039.

“DSKVRRVAERFMHAIQEGNEDDVRKLADKNVQIHVGEKELRGRDQLAKDVSDRTRQIRLHIKHLSIHVQGDKVIVRFDVVETHNGKPHRYRAKAEMRVRNGRVTRYTVKHDG”: the protease stability score was found to be 0.633.

In the case of “DEDDLRRRANEVAEVLHDNDEESMKSLVDPNADIEIGDKRLHGRDDMEKWMQERKRRVDHLTLHSFNVHNGRVDIDARVEVNGQQERYRMVVEFHNGVAKHINFTST”, the protease stability score was found to be 0.569.

“DDEKVAEQIMNEVLTAIKNNDPQEAADNMDKDARAEVGDNDLTGRERLSKWWVTMANRADHITAHVDSVDEQGDKIHVVWKYTADINGQQVSKDIKFVVVRQNGRVKIKRIKND” gave a protease stability score of 1.11.

In the case of “DEEQIVNRLWTEAQKNWEEGNETEIANQFDPNARVNVGEKDYHGTEQIMKWVKEILRHADSVRYSIDSIDVNGDTVYVHFTMVMRHNGQKESERIIATMKVDNGEARFTDIKQG”, the protease stability score is 0.737.

Regarding “DEENQKQIKKIWHAWEKGDEQKAQDMVDPNVNIQVGDKHISGQDSLREDLRRKRHEMRVRVRFHDINIDENHISVKIEVLNEKNGRPSTKVVVFEATVHNGKIKSMEFRDDD”, the protease stability score is 0.494.

Turning to “DEEVKSVAEQLMDVLQKGDPKQMSRLADKDVKINVGDKQYDGSEQLEKAVEDWKDEMRFQIEHVSISARGDKANVDFHVEFSFNGKPHSREVKVYIKVHNGRIKYLEYRVDPNEERKIKK”, the protease stability score is -0.267.

In turn, “DEEVAKTMAEQWIKAVQKGDKEKLVKHYKPNVQWIDGDERTQGTDVVRKVMETAQKRGVEFQVRKRKVEGDQFEIVYDANVGNKTATFDIKFQVKGGKMEEMRVEVDERAKKVRKEG” registered a protease stability score of 0.094.

Regarding “DEENSRILKELLRAIRRGDEERAKELVDPNAKFQVGNKNVHGRDHWAQELRKEKEKIRFDMHIKHVKVDNGKIKVDLRVQVDVDGRPVTNRVKLTVELHNGRLTHLRVEMDEDQERKLKK”, the protease stability score came to 0.366.

On to “EEEDTKLMKQYADAVNNNNPDELRRQADENVRFEVGDNVFHGRKEYIKDVERKLRNIRITMNVKSLTVEGDKVNVTFEERHNKNGKPETFTAKARAHFHNGRIHSIRYEKDG”, for which the protease stability score is 0.049.

“DEENVDRMEEIIRSGDFKELLELADPNVKVVVGDKEYSGRHVATTVLQSLYEQVDHHKVHSVQNEGETVEFDLKVVVNGQEMRMRFVIVFENGRIKTIQIEFTDPRQEEKFLKNIK”: the protease stability score amounted to 1.08.

Regarding “DEEAEHVARELQKAQETGNPKRARHMMDENARIQVGDHRIHGMSRYLEDLRRKQEEIRIEFKRVSHNVNGNRVVINFLAVYEVNGHPVHLRIQLSFEIHNGRAQTMDVNISEQQMRDIER”, the protease stability score was -0.022.

Turning to “DDEDWHRLAERLFTALRTGDWKELLKMMDPNVNINIGDQTYHGRKDLKNWAQHMREEVDHVEIKSIRIQGNKIVLDITYVTNGQRQNVIFVFSIHNGKVKHVHAKTK”, the protease stability score was 1.14.

On to “DDEQDAREFVKKFVDVMRENNPRELVKMADPNVKVDVGDHRLNGREDLERKRKREADRADHIDVKVTKLHVNGDTVQAHFSFTIRHDGRNERKSETIIARKHNGRVKIKSIKNS”, for which the protease stability score was -0.13.

As to “DEDNQTQTAERVVEIMRTGDEHKMRNLADENVKIQIGDKKYRGRDEASKQAKELRDRVDRLRVVRFDVHGNKVRIVMQFKYNGVTVNFKFTVEIHNGRVKSMEMRYTNPEDLKRARS”, the protease stability score amounted to 0.182.

With “DEHELRRQADDFWHAVRTGDEKRIVELLDPNAHAVVGDKRYHGEKQIRQLVRSMREQVDTFRVSSITVSGDDIEIDIVLNVNGREFRATIVLRQHNGKVTELKLHPNINRALES”, the protease stability score came out at 1.28.

“DEEDLKNQARDFIEALETGDEDQIARLADPDAEADVGDTKYTGREEVREYMKHISDNVDHIQLKDMKVSGNEITIVAVLNVNGHEFDMEIHIELHNGRAKTIRIDPRAINHMTK” showed a protease stability score of 0.746.

In turn, “DDDKERKARKFAEIYMHGDWRKAHQYADPNVRIKVGDKTFQGRESLAKLVESLRKEQRLEMKRVEARVTNGRINLHLRFVVQKNGTPSHRRIHFDARMHNGKLKEMTENDKR” registered a protease stability score of 0.115.

Take “DDEDEHKFATRMAEILHTGDPDRFQEQVDENVEARYGDKEYHGDEQAKTAFKHVVERVDTVEIKHMDAKNGKVSVHFVLDYDGEKQHVTLNVELHNGKAQRVEFQTQ”: the protease stability score was 0.144.

For “DDRNKHIFKKIIEAERTGDEDKLRQNFDPNARFRIGNQTYHGREHWADRVSDLRKKIRVEIKIKRVQVDGDKVVVKYQVVYNVNGRPKKDTFRVVLHFQNGKAKHRTFQIDEERKEHLDS”, the protease stability score was determined as 0.252.

Turning to “DEDKEAKKAIDDWKKIIDTNDEDQARRMFDPNAKVTIGDKTYHGREQASTLFHQLMKRFDHMSFHVDKVRVHNGQVDAVVTARFNHNGRTEEMRLRFRFDDHNGQLVIVQIDWE”, the protease stability score worked out at 1.35.

Take “DDENRRRAETWFRNIQDNNPELIRHMFDEDARLEVGDKEIQGREHFEEQMKRDVEEMRLDLKVKSVEVRGNDVTVKAEAQDDRNGHPRNFTFRIRIRYHNGRVKHVHMDRQG”: the protease stability score is 0.092.

“DERDLKTFLDILERNDEDKLQTMADENVELQVGDKTFHGREEFQKYVQHVRDQVDRVDVRDYRIDNGRASVRVIFDFNGKNLDVVMVFSVRNGRVKYFSIQYRDEEVKKMLEEIEG” had a protease stability score of -0.172.

With “DEDADRVFEEFIRAKTRGDPDRLSQLVDPNVRMHVGDQELRGRDTVRRFLHEVLHHARNDIHIQSMEVDGDHVSVEFKATTEHNGQPRTDRMTASAKIDNGRIKSLQEHSKK”, the protease stability score is -0.297.

“DEHAARVQHEIQKVQETGDEERVRELVDPNVKIQVGDKTIHGMDEYLTRVKKRMDELRFSVTWRHYDVHNGQVNVKVEFTKDHNGKPQRDVMVMKFHIHNGRVQFLSMEKDQ” showed a protease stability score of 0.843.

Consider “DKHAAQVVLEIMHAVDTGNENEVMKLIDPNARVEYGDKSITGREDIARHLIHDAKHINRRWSLKDIDVQGEKVFIKFEYKTNKNGRPDKADVNLEAKAHNGTVTTMRLQETR”, for which the protease stability score was determined as 0.368.

“DEEKNREVKRFLDVMQKGDEDKLRRNVDPNVRFHIGDKTVQGHESFVEQLKTEKQHLRLRIDIKSVRATGNDIEVTAKVEYEHNGQPQHKELQIDVKMHNGRVKTIRYTRRG” yielded a protease stability score of 0.224.

For “DEENKHAAERLMRAIQKGDPDDMVRNMDKDAKVNIGDQQFHGREEVAKQNRKDNKEMRYHQEVKSISVDGDKVTVEATAQFTYNGQPDTFKFSFRAHLHNGRIRHLDVHFDEQTKRDQES”, the protease stability score stood at 0.101.

In turn, “DEERNERHAQDLMRALENNDEERLRQLLDKDAKLNVGDHEIHGSENIVKRLAEFLKRADHLRFERMTVRGDTVQISFEVEHDGERRKYEVHITVHNGHVQSITIQKQ” came in with a protease stability score of 2.49.

On to “DEDEEKRIRKYIKQQETGDPDKLNKYFDKDVHLHVGDKEVKGDEQANRELEHKFRKLRYSFEVKKLEVSNGKVEVKYHATVESNGKPHTYEVSADATLHNGRLQSQVNNERG”, for which the protease stability score was -0.021.

As for “DEEALKKLQDILRRNDQDKMNKMIDKDVRVVIGEHEYRGKRNVQEALKREYEHADRFEVKHIEDHGDKLHVDVVLRVDGRDIRFVVVIDVHNGNIRNVKVDFTDEDTQRDFQRQLD”, the protease stability score was 1.01.

“DEDKMLKVAKEAVEAITKGNAEQIKKVGKEGVQVTFGDEKYHGPDQLEEYVKKVKDQGNHIEYKEQEFKGDTATVKTEAEKGDQKVTFEVHYQVKGNKLDRLEVRFDKEQQKKFEQS”: the protease stability score was -0.256.

With “DETHKAKEMLKEFHTAVSKGDEDRYSNLLDENVHITYGDKTVHGREEAVKLFTELQERADHVDVDVVSVDVKGETVKARIRINFVYDGREDRHEFTLIAIVDNGRFVIKSIIQK”, the protease stability score was 1.22.

On to “DDDNKRKAETYMKNLHTGDPDKATEYMDKDAKIQYGDKSVHGRHQWREEIERRRKELRFTVDLHRLHVQGEKFDLKYIEHNNHNGNPKSQSASVTYRMHNGRVHSIQYSYTK”, for which the protease stability score is -0.237.

“DEHNEAVELMKKLWEAARTGDEEELHKQVDKDVRINVGDKELHGNSQAARKIMERAKRVDHVDVKIQEVTHKGDKIVMRVQFRNTHNGRETDSRYVVWFKNSNGRWVFVKIERG” displayed a protease stability score of 1.31.

In the case of “KEETVETLWKQMVEAVQKNNEEQLKKLGKDDVKVEYGGKKYEGTEQMATQLKKFMDLGAKFELKRYKVEGNHVEADIQVHVGGKTVHVTVRVEYDGGKLKKVQVHVSEEAEEAYKKG”, the protease stability score turned out to be 1.24.
